Reference: article PMC2858980

How the values were obtained:
IL-8(1–66) monomer = assay: NMR titration
[1] = target: IL-8(1–72) R26C trapped dimer; assay: NMR titration

Kd (IL-8(1–66) monomer): 10 µM
Kd [1]: 340 µM
Binder: LWTWFEDEFANATGMPPVEKDYSP [CXCR1 N-domain 24-mer]
